T1: GR (Rattus norvegicus, UniProt P06536)
T1 construct: plus VP16 fused to the indicated full length receptors; expressed in transfected cells; host or cells: CV-1
T1 sequence (P06536 1-795): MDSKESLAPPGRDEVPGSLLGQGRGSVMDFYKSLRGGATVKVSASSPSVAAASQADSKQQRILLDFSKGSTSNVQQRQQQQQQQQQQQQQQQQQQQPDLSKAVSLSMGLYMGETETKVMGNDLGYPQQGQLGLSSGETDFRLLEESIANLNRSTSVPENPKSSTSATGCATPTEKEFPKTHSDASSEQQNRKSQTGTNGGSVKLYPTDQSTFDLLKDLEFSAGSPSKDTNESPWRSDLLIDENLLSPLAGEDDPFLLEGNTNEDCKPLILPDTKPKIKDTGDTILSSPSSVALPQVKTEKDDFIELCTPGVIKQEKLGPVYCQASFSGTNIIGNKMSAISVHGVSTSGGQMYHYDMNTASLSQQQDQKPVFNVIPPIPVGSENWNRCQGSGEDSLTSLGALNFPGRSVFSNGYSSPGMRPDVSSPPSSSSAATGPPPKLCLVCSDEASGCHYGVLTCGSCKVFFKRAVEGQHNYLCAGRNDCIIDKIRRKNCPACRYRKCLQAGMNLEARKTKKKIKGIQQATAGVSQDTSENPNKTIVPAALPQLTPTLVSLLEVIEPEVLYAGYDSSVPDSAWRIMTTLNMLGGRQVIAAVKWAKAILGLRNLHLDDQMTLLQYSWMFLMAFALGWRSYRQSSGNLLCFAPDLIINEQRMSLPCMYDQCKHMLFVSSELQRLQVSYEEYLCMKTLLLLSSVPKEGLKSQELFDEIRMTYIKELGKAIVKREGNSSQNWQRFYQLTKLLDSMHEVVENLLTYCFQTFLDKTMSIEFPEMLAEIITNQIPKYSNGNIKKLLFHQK

T2: TIF2.4 (Homo sapiens, UniProt Q15596)
T2 sequence (Q15596 624-1010 limits assumed): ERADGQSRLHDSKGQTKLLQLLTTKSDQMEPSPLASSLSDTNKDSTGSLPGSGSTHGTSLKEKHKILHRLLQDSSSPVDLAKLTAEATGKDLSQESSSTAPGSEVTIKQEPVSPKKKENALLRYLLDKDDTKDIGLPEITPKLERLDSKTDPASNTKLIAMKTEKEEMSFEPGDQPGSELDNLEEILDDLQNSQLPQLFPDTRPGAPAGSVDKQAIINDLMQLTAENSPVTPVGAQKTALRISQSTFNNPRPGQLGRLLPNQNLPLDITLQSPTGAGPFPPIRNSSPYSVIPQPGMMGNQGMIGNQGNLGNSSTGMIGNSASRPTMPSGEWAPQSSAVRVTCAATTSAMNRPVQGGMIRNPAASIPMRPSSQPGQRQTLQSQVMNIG

B1: 6-6CL1: STAMP fragment amino acids 623-834, coactivator interaction domain (CID) (protein)
chain: ENTPKENSMKVREWNNKGGHCCKLETQELEPKFNLMQILQDNGNLSKMQARIAFSAYLQHVQIRLMKDSGGQTFSASWAAKEDEQMELVVRFLKRASNNLQHSLRMVLPSRRLALLERRRILAHQLGDFIIVYNKETEQMAEKKSKKKVEEEEEDGVNMENFQEFIRQASEAELEEVLTFYTQKNKSASVFLGTHSKISKNNNNYSDSGAKG
B2: STAMP834C: STAMP fragment amino acids 834-1277, receptor interaction domain (RID) (protein)
chain: GDHPETIMEEVKIKPPKQQQTTEIHSDKLSRFTTSAEKEAKLVYSNSSSGPTATLQKIPNTHLSSVTTSDLSPGPCHHSSLSQIPSAIPSMPHQPTILLNTVSASASPCLHPGAQNIPSPTGLPRCRSGSHTIGPFSSFQSAAHIYSQKLSRPSSAKAGSCYLNKHHSGIAKTQKEGEDASLYSKRYNQSMVTAELQRLAEKQAARQYSPSSHINLLTQQVTNLNLATGIINRSSASAPPTLRPIISPSGPTWSTQSDPQAPENHSSSPGSRSLQTGGFAWEGEVENNVYSQATGVVPQHKYHPTAGSYQLQFALQQLEQQKLQSRQLLDQSRARHQAIFGSQTLPNSNLWTMNNGAGCRISSATASGQKPTTLPQKVVPPPSSCASLVPKPPPNHEQVLRRATSQKASKGSSAEGQLNGLQSSLNPAASVPITSSTDPAHTKI
B3: STAMP: SRC-1 and TIF2 Associated Modulatory Protein, 1277 amino acid human polypeptide, expressed from transfected plasmid (protein)
chain: MARDLEETASSSEDEEVISQEDHPCIMWTGGCRRIPVLVFHADAILTKDNNIRVIGERYHLSYKIVRTDSRLVRSILTAHGFHEVHPSSTDYNLMWTGSHLKPFLLRTLSEAQKVNHFPRSYELTRKDRLYKNIIRMQHTHGFKVFHILPQTFLLPAEYAEFCNSYSKDRGPWIVKPVASSRGRGVYLINNPNQISLEENILVSRYINNPLLIDDFKFDVRLYVLVTSYDPLVIYLYEEGLARFATVRYDQGAKNIRNQFMHLTNYSVNKKSGDYVSCDDPEVEDYGNKWSMSAMLRYLKQEGRDTTALMAHVEDLIIKTIISAELAIATACKTFVPHRSSCFELYGFDVLIDSTLKPWLLEVNLSPSLACDAPLDLKIKASMISDMFTVVGFVCQDPAQRASTRPIYPTFESSRRNPFQKPQRCRPLSASDAEMKNLVGSAREKGPGKLGGSVLGLSMEEIKVLRRVKEENDRRGGFIRIFPTSETWEIYGSYLEHKTSMNYMLATRLFQDRMTADGAPELKIESLNSKAKLHAALYERKLLSLEVRKRRRRSSRLRAMRPKYPVITQPAEMNVKTETESEEEEEVALDNEDEEQEASQEESAGFLRENQAKYTPSLTALVENTPKENSMKVREWNNKGGHCCKLETQELEPKFNLMQILQDNGNLSKMQARIAFSAYLQHVQIRLMKDSGGQTFSASWAAKEDEQMELVVRFLKRASNNLQHSLRMVLPSRRLALLERRRILAHQLGDFIIVYNKETEQMAEKKSKKKVEEEEEDGVNMENFQEFIRQASEAELEEVLTFYTQKNKSASVFLGTHSKISKNNNNYSDSGAKGDHPETIMEEVKIKPPKQQQTTEIHSDKLSRFTTSAEKEAKLVYSNSSSGPTATLQKIPNTHLSSVTTSDLSPGPCHHSSLSQIPSAIPSMPHQPTILLNTVSASASPCLHPGAQNIPSPTGLPRCRSGSHTIGPFSSFQSAAHIYSQKLSRPSSAKAGSCYLNKHHSGIAKTQKEGEDASLYSKRYNQSMVTAELQRLAEKQAARQYSPSSHINLLTQQVTNLNLATGIINRSSASAPPTLRPIISPSGPTWSTQSDPQAPENHSSSPGSRSLQTGGFAWEGEVENNVYSQATGVVPQHKYHPTAGSYQLQFALQQLEQQKLQSRQLLDQSRARHQAIFGSQTLPNSNLWTMNNGAGCRISSATASGQKPTTLPQKVVPPPSSCASLVPKPPPNHEQVLRRATSQKASKGSSAEGQLNGLQSSLNPAASVPITSSTDPAHTKI

Tests used:
GR = target: T1, GR; experiment: Mammalian two-hybrid assay in CV-1 cells with VP16/GR; format: cell-based; settings: VP16/GR ± 1 μM Dex
Source text: FIGS. 6A and 6B illustrate the domains of STAMP that interact with TIF2.4 (FIG. 6A) and GR (FIG. 6B) in the mammalian two-hybrid assay. […] These CV-1 cells were also transfected with GAL fused to the indicated segments of STAMP along with the FRLuc reporter and Renilla control plasmids. After determining the relative luciferase activities as described in FIG. 2B and 2C, the average values±S.E.M. from 2-5 experiments were plotted. The average fold increase for VP16/TIF2.4 with GAL/STAMP(623-834) in FIG. 6A was 11.0±3.0 (SEM, n=5) above the VP16 control. The values in parentheses above the data bars in FIG. 6B indicate the fold increased interaction ±1 μM Dex.
These assays were conducted as described (He et al., 2002). In particular, the recommended procedure for the Mammalian Matchmaker two-hybrid assay kit (Clontech) was modified slightly by changing from a chloramphenicol acetyltransferase reporter to a Luciferase Reporter pFRLuc (Stratagene), which is under the control of five repeats of the upstream activating sequence for the binding of GAL4.

TIF2.4 = target: T2, TIF2.4; experiment: Cell-free pulldown of [35S]-labeled STAMP constructs by GST/TIF2.4; format: binding; settings: compared with GST itself
Source text: FIGS. 7A and 7B illustrate the domains of STAMP that bind to TIF2.4 (FIG. 7A) and GR (FIG. 7B) in cell-free pulldown assays. Bacterially expressed GST-chimeras (GST/TIF2.4 in FIG. 7A and GST/STAMP segments in FIG. 7B) were immobilized on glutathione-Sepharose beads. The [^35S]methionine labeled STAMP fragments (FIG. 7A) or wild type GR (FIG. 7B) that were retained on the matrix by binding to the GST chimeras were separated on SDS PAGE gels and visualized by autoradiography. Specific binding was seen as when the GST/TIF2.4 or GST/STAMP bands were darker than the GST control bands. […] Similar results were obtained in a second experiment.
Template DNA plasmids (1 μg), 40 μl of Promega TNT (SP6) quick coupled transcription/translation system master mixture, and 2 μl of [^35S]methionine (Amersham Biosciences) were brought up to a total volume of 50 μl with H2O and incubated at 30° C. for 90 min according to the manufacturer's (Promega) recommendations. If hormone stimulation is needed, hormones (Dex, etc) were added into the transcription-translation reaction during the 30° C. incubation to both increase the stability of the synthesized GR and to cause activation of the GR-steroid complexes.
These assays were conducted generally as described (He et al., 2002). Sonicated bacterial lysates (1 ml) containing overexpressed GST, GST/TIF2.4, or GST/STAMP-956C were incubated with 160 μl of glutathione-Sepharose 4B beads for 1 hr at 0° C. The mixture was centrifuged (12,000×g), the supernatant was discarded, and the pellet was washed with phosphate-buffered saline (3×1 ml). Each 20-μl sample of immobilized GST or GST-chimera was then incubated overnight with 10 μl of ^35S-labeled in vitro translation product. The matrix was washed with phosphate-buffered saline (4×1 ml). The immobilized proteins were removed from the beads by heating at 90° C. for 5 min in 20 μl of 2×SDS loading buffer. The proteins were separated on 8-10% SDS-PAGE gels and detected by radio-autoradiography.

Molecule	interaction with GR (GR)	binding to GST/TIF2.4 (TIF2.4)
B1	relative inactivity	strong binding
B2	largest agonist-induced changes	neither the amino terminal (N623) nor the C-terminal (834C) fragments exhibit significantly more binding to GST/TIF2.4 than to GST itself
B3		weak interaction

Reference: patent US7867500B2, “Cofactor that modulates steroid receptor activities” (The United States of America as represented by the …, priority 2004, dated 2011)
